The record followed here is paper PMC3858840 (2013).

Usually Kd stands for the free concentration of one partner at which half of the binding sites on the other are occupied at equilibrium, for simple one-to-one binding. Low values mean tighter binding, high ones weaker binding.

The test deals with calmodulin (Homo sapiens, UniProt P0DP23). Put plainly: TMR fluorescence titration.

No end group written: not given here.

Take ARRLKKGKKSKRSMNDPY (also: TMR label, site not given here) [TMR-labeled L-selectin cytoplasmic peptide cytoplasmic domain]: the Kd is approximately 1 µM.
